This note sets out measurements from patent US7745575B1 (Cellpep Pharma Inc., priority 2004, dated 2010).

Data set [1] in a line: toxicity in vivo, LD50 after intracerebroventricular injection. As to conditions: mouse, icv or intrathecal, 20 g C57/BL6 mice. Here is the method:
Groups of six to eight mice per dose were injected with 5 μl peptide solution containing 0.1% (w/v) bovine serum albumin and 0.9% (w/v) NaCl. The LD50 values are set out in Table 5.

The target in data set [2] is mKv1.3 (Mus musculus, UniProt P16390). As to the kind of experiment: patch-clamp whole-cell recording, K+ current block. Type of data set: cell-based. Here is the method: Electrophysiological experiments were carried out at 22-24° C. using the patch-clamp whole-cell recording mode. Cells were bathed with mammalian Ringer's solution (in mM): 160 NaCl, 4.5 KCl, 2 CaCl2, 1 MgCl2, and 10 HEPES (pH 7.4 with NaOH), with an osmolarity of 290-320 mOsm. […] A syringe-driven perfusion device was used to exchange the external recording bath solution. Two internal pipette solutions were used, one for measuring voltage-gated K^+ currents that contained (in mM): 155 KF, 2 MgCl2, 10 HEPES, and 10 EGTA (pH 7.2 with KOH), with an osmolarity of 290-320 mOsm and another for measuring Ca^2+-activated K^+ currents that contained (in mM): 135 K-aspartate, 8.7 CaCl2, 2 MgCl2, 10 EGTA, 10 HEPES (pH 7.2 with KOH), with an osmolarity of 290-320 mOsm. A free [Ca^2+]i of 1 μM was calculated. All currents through voltage-gated K^+ channels were elicited by 200 ms depolarising voltage steps from −80 to +40 mV. Potassium currents through KCa1.1, KCa2.1 and KCa3.1 were elicited by 1 μM internal [Ca^2+]i and 400 ms voltage ramps from −120 to 0 mV (for KCa3.1 channel and KCa1.1 channel) and from −120 to +40 mV (for KCa2.1 channel). Electrodes were pulled from glass capillaries (Science Products, Germany), and fire-polished to resistances of 2.5-5 MΩ. Membrane currents were measured with an EPC-9 or EPC-10 patch-clamp amplifier (HEKA Elektronik, Lambrecht, Germany) interfaced to a Macintosh computer running acquisition and analysis software (Pulse and PulseFit). When voltage-gated K^+ currents were measured, the capacitive and leak currents were subtracted using a P/10 procedure. Series resistance compensation (>80%) was used for currents above 2 nA. The holding potential was −80 mV in all experiments.
Background: In patch-clamp work, channel activity is measured electrically.

Data set [3] concerns Lewis rats immunized with spinal cord homogenate. As to the kind of experiment: treatment of chronic relapsing EAE, osmotic pump IP. Type of data set: in vivo. To be noted: MTx 50 nM. On the procedure:
Each rat received 200 μl of emulsion sc, divided in the rear footpads, on day 0. Eight days later, as their body weight decreased, a precursor sign for clinical EAE, an osmotic pump was implanted IP. The pump delivered drugs at 1 μl/h for 8 days. They were filled with the peptide blockers, dissolved in Na Cl 0.15 M containing 2% Lewis serum, as vehicle.
Clinical evaluation. The severity of the disease was scored on a scale of 0 to 6, with 0.5 points for intermediate clinical findings (0: no clinical signs; 1.0: limp tail; 2.0: mild paraparesis and ataxia; 3.0: moderate paraparesis; 4.0: complete hind limb paralysis; 5.0: paralysis+incontinence; 5.5: tetraplegia; 6.0: moribund or death). Rats were weighed every day. Rats showing no clinical signs of EAE and no weight loss were excluded from the studies. The beneficial effects of K^+ blockers on EAE were evaluated by a reduction in clinical severity and in duration of the disease and in number of relapses compared with those of rats treated with the vehicle only, 0.15 M NaCl.
Data analysis. Statistical analysis was conducted using the Mann-Whitney U test. Mean differences between groups were considered significant at values of P<0.05.

Another data set concerns the target mKv1.1 (mouse (only by the printed prefix m), UniProt P16388). As to the kind of experiment: cell-based or functional assay.
A further data set concerns the target T1, hKv3.2 (human (only by the printed prefix h), UniProt Q96PR1).
T1 sequence: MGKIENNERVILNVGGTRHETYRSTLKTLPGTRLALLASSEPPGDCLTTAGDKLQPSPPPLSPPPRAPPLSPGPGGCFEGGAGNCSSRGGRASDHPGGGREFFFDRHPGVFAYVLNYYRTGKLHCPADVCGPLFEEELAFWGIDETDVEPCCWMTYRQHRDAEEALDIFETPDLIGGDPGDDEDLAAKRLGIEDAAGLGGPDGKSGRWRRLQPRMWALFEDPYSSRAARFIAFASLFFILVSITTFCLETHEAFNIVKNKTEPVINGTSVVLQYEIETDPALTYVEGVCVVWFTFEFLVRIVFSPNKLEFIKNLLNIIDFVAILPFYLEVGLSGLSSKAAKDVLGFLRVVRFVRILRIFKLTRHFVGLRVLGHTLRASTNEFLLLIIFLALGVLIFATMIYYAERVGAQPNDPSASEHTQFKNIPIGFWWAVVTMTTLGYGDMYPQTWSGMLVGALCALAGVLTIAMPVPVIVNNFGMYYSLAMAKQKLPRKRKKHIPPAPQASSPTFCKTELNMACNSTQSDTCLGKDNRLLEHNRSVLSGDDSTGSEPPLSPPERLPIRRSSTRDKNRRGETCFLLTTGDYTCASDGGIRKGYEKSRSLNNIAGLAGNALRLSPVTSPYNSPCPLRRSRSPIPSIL
As to the kind of experiment: cell-based or functional assay.

The target of another data set is hKv1.2 (human (only by the printed prefix h), UniProt P16389). As to the kind of experiment: cell-based or functional assay.
In data set [4] the target is mKv1.3 (mouse (only by the printed prefix m), UniProt P16390). As to the kind of experiment: cell-based or functional assay.
Another data set concerns the target hIK1 (human (only by the printed prefix h), UniProt O15554). As to the kind of experiment: cell-based or functional assay.

“And” between values parts separate entries of the source, which are not always exact repeats. Equal values may be shown once. “Also recorded” adds a separate entry of the source. Bridge positions count the residues as written; N and C are the ends. Ends that are not written are not given here. Peptide text beside a SMILES is read from it.

mKv1.3 (Mus musculus, UniProt P16390), sequence (P16390 whole entry, the tested form may be a part): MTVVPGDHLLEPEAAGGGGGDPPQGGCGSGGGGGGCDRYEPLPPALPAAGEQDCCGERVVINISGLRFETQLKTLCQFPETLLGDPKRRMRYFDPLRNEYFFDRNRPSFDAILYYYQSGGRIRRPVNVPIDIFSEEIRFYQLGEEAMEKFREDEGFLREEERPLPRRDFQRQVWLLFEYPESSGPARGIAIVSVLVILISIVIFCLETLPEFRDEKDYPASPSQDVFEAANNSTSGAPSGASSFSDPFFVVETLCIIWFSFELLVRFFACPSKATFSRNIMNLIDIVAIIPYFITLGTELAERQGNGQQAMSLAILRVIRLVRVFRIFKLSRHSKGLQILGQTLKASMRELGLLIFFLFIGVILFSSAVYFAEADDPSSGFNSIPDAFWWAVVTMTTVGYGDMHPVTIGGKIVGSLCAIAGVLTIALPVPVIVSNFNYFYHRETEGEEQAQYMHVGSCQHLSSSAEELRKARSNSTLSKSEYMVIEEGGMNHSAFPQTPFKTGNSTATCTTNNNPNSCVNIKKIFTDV

One may read the LD50 as the dose expected to kill half of the subjects tested. A low value points to greater toxicity. Usually IC50 stands for the concentration that gives 50% inhibition. A lower IC50 goes with higher potency. In turn, `CC[C@H](C)[C@@H]1NC(=O)[C@H](CCCCN)NC(=O)[C@@H](NC(=O)[C@H](CCCCN)NC(=O)[C@@H](NC(=O)[C@H](CC(N)=O)NC(=O)[C@@H](NC(=O)[C@@H](NC(=O)[C@@H](NC(=O)CN)C(C)C)[C@@H](C)CC)[C@@H](C)CC)C(C)C)CSSC[C@@H]2NC(=O)[C@H](CCCCN)NC(=O)CNC(=O)[C@H](Cc3ccccc3)NC(=O)[C@H](CCCNC(=N)N)NC(=O)[C@H](CCSC)NC(=O)CNC(=O)[C@H](C)NC(=O)[C@H](CCCCN)NC(=O)[C@H](CCCCN)NC(=O)[C@@H]3CSSC[C@@H](C(=O)N[C@H](C(=O)N4CCC[C@H]4C(=O)N[C@@H](CCCCN)C(=O)O)[C@@H](C)O)NC(=O)[C@H](Cc4c[nH]cn4)NC(=O)[C@H](CSSC[C@H](NC(=O)[C@H](CCC(N)=O)NC(=O)[C@H](CCCNC(=N)N)NC(=O)[C@H](CO)NC1=O)C(=O)N[C@@H](CC(C)C)C(=O)N[C@@H](CCCCN)C(=O)N1CCC[C@H]1C(=O)N3)NC(=O)[C@H](CCCCN)NC(=O)CNC(=O)[C@H](CC(N)=O)NC(=O)[C@H](CCSC)NC2=O` [[K^16]-OsK1] (H-GVIINVKCKISRQCLKPCKKAGMRFGKCMNGKCHCTPK-OH; disulfide 8-28, 14-33, 18-35) gave an LD50 in data set [1] of 3 µg/kg. On mKv1.3 [2], the IC50 is 0.067 ± 0.006 nM.

As for “VSCTGSKDCYAPCRKQTGCPNA-KCINK-SCKCYGC [MTx]”, the Incid in data set [3] is 100%. Besides, the “Max Clin Sc, Mean ± SD” value in data set [3] (group mean, scale 0 to 6) is on record as 2.2 ± 1.5. Also, in data set [3] (individual rats), the “Duration (days), first episode of EAE” value is “chronic (3×) and 11 days”; the “Onset (day), first episode of EAE” value is “d11 day; also recorded: d8 day; also recorded: d7 day”. Further, the “Max Clin Sc” value in data set [3] (individual rats, scale 0 to 6) was 4 and 1 (2×) and 3.

Turning to VIINVKCKISRQCLEPCKKAGMRFGKCMNGKCHCTPK-NH2 (ends and bridges not checked) [[Δ^1]-OsK1-NH2], the ID50 is 2.06 nM with mKv1.1; more than 1000 nM with hKv3.2; 85 nM with hKv1.2; 0.038 nM with mKv1.3 [4]; 620 nM in the data set with hIK1.

On to GVIINVKCKISRQCLEPCKKAGMRFGKCMNGKCHCTPK-NH2 (ends and bridges not checked) [OsK1-NH2], for which the ID50 in the data set with hKv3.2 was more than 1000 nM; in the data set with hKv1.2 it was 26 nM.

Turning to Ac-GVIINVKCKISRQCLEPCKKAGMRFGKCMNGKCHCTPK-NH2 (ends and bridges not checked) [Ac-OsK1-NH2], the ID50 with hKv3.2 is more than 1000 nM; with hKv1.2, approximately 1300 nM.

On to GVIINVKCKISRQCLKPCKKAGMRFGKCMNGKCHCTPK (ends and bridges not checked; cysteine pairing not given here) [[K^16]-OsK1], for which the ID50 with mKv1.1 is 0.63 nM; in the data set with hKv1.2, 5.23 nM; with mKv1.3 [4] it was 0.067 nM; in the data set with hIK1, 151 nM.

Consider GVIINVKCKISRQCLEPCKDAGMRFGKCMNGKCHCTPK (ends and bridges not checked; cysteine pairing not given here) [[D^20]-OsK1], for which the ID50 with mKv1.1 worked out at 2.95 nM; in the data set with hKv1.2, 77.8 nM; with mKv1.3 [4], 0.037 nM; with hIK1, 716 nM.

GVIINVKCKISRQCLEPCKKAGMRFGKCMNGKCHCTPK [OsK1] had an ID50 in the data set with hKv3.2 of more than 1000 nM.
